In PMC6309453 one finds binding data, which are given here for five sequences.

The target in data set [1] is T1, GST-NST2 (Arabidopsis thaliana) (UniProt Q9M274).
T1 sequence: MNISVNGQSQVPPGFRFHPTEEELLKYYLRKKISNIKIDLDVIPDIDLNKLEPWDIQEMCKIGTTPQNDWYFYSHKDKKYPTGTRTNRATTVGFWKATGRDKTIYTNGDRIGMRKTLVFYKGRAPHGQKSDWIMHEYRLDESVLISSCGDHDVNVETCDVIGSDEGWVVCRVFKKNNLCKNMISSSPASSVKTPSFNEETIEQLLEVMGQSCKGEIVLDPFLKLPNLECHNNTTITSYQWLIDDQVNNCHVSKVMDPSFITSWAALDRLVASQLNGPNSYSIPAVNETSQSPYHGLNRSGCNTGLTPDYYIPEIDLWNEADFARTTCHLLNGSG
As to the kind of experiment: EMSA. The note with it: 10 mM Tris pH 7.5, 50 mM KCl, 1 mM DTT, 2.5% glycerol, 5 mM MgCl2, 0.1% IGEPAL CA-630, 0.05 ug/ul calf thymus DNA, 150 ng protein, 30 min room temperature.

Data set [2] addresses T2, GST-SND1 (NST3) (Arabidopsis thaliana) (UniProt Q9LPI7).
T2 sequence: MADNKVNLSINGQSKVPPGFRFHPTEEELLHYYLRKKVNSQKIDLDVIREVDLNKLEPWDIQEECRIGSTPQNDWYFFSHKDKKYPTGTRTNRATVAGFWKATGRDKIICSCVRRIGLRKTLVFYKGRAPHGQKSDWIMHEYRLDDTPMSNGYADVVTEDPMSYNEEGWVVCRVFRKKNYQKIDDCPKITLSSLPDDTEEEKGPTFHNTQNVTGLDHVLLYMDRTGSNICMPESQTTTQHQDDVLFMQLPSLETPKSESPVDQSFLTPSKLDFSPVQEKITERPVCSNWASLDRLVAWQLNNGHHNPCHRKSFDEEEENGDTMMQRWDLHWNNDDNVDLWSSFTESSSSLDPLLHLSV
Briefly: EMSA. The note with it: 10 mM Tris pH 7.5, 50 mM KCl, 1 mM DTT, 2.5% glycerol, 5 mM MgCl2, 0.1% IGEPAL CA-630, 0.05 ug/ul calf thymus DNA, 150 ng protein, 30 min room temperature.

For the sequence “CCAGATTTGGTAAAGTTTATAAGATACAAAATATTAAGTAAGACTAAAGTAGAAATACATAATAACTTGAAAGCTACTCTAAGTTATACAAATTCTAAAGAACTCAAAAGAATAAC (double strand) [CESA4Bay-C]”, the binding result in data set [1] and in data set [2] was “binds” throughout.

In the case of “GAAAGCTACTCTAAGTTATACAAATTCTAAAGAACTCAAAAGAATAACAAACAGTAGAAGTTGGAAGCTCAAGCAATTAAATTA (double strand) [CESA4Bay-D]”, the binding result in data set [1] and in data set [2] was “no binding” throughout.

For the sequence “GAAAGCTACTCTAAGTTATACAAATTCTAAAGAACTCAAAAGAATAACAAACAGTAGAAGTTGGAAGCTCAAGCAATTAAATTA (double strand) [CESA4Sha-D]”, the binding result in data set [1] and in data set [2] was “no binding” in each case.

Take “GTTGGAAGCTCAAGCAATTAAATTATATAAAAACACTAACTACACTGAGCTGTCTCCTTCTTCCACCAAATCTTGTTGCTGTCTCTTGAAGCTTTCTTATGACAC (double strand) [CESA4Bay-E]”: the binding result in data set [1] and in data set [2] was “binds” throughout.

Consider “GTTGGAAGCTCAAGCAATTAAATTATATAAAAACACTAACTACACTGAGCTGTCTCCTTCTTCCACCAAATCTTGTTGCTGTCTCTTGAAGCTTTCTTATGACAC (double strand) [CESA4Sha-E]”, for which the binding result in data set [1] and in data set [2] was “binds” each time.
